Assay results reported in the supplement of paper PMC12636428.

System: Saccharomyces cerevisiae
Assay: transcriptional activation domain activity (GFP:mCherry ratio, weighted mean of sorted bins, harmonized to initial dataset scale) (arbitrary fluorescence ratio units); higher = stronger transcriptional activation
Details: beta-estradiol 1 µM; induction time 4 h
In short: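 Values are activation activity, found as the read-weighted mean of bin median fluorescence, averaged across barcodes and then mapped linearly onto the initial dataset scale. Barcoded protein tiles fused to an estradiol-inducible synthetic transcription factor were integrated at the URA3 locus of GFP-reporter yeast diploids. Cells were induced for 4 hours at 30 °C with 1 uM beta-estradiol in SC, sorted into 8 bins by GFP:mCherry ratio, and barcode-sequenced, with tiles under 50 reads discarded.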

## VFCMLYTLLHILAACLHYHCFSHLAPPYQTLLWYSYFNVIIVGLLLFWYCELV
  transcriptional activation domain activity: 35100

## GASTSAFGTPSALGAKPNPFGTPATGGAFGQPAAAPAFGQPTQPAGAFGQPAQ
  transcriptional activation domain activity: 40300

## FPIRIYSYVKLKWHLFLFDYCYFASMLNLIYLWILPNSTLLFTICYCAAHGPL
  transcriptional activation domain activity: 61800

## MSFLHCFFHVRYFPSNLFVIVIMFLLLFVHSFARGWRMEYAVSFLFNSLVLMY
  transcriptional activation domain activity: 61700

## EGSARGGEAGKKEERQADEKEHKGRARPGRGEKDGGGRGRREEERDRKEQNGG
  transcriptional activation domain activity: 34000

## RKVGFILYVIMHMRINIVFAAFRLAKFNINPNSVYIKIINCVIKYLLKTMDYF
  transcriptional activation domain activity: 44700

## KALLLLLRIAHLQFNKIPLTLIFDQFLNVAILCDMYSKGNEKYLLISWVFHRE
  transcriptional activation domain activity: 28800

## KRHLPWPWNGERLIFILQDVWVPNFNEHHLLWTLDLKRKGLTFIALTNVWGIY
  transcriptional activation domain activity: 50300

## MESHSFLPICRYFWGVMPQLMPSFYLNLLSWFSLCFIVFHWLHTVVIFPYLLL
  transcriptional activation domain activity: 49200

## SSSSASSSSASARGRKTQAARSTKKRKRRDAVSSANKDEDNDSDASNDEDEDE
  transcriptional activation domain activity: 27500

## LLRRIMRYRNMHLLLSYAVELGFLRAIILCGRPSLSKVHHHVRFFLRDLLPAS
  transcriptional activation domain activity: 38800

## LLHLAISQLQAYLDRFRTRLNAVHALHLKRLILFLTALDQFTCARVAGMKVRS
  transcriptional activation domain activity: 33700

## ALYFMVIFTSHIIYTFTLILGRPIVQVIPALYGLLSFLADSDLLFILPLCRMG
  transcriptional activation domain activity: 55000

## RLLNKTRQCHDDGIAVLQNSIETISTTLVLWTHREVIGPLQLNLNWVAMSFAC
  transcriptional activation domain activity: 48200

## NTVWLILNDITIGIAFGTFLCENHLILAAYVNYTIEKLLIKEIQWILGWLDSW
  transcriptional activation domain activity: 84200

## APSDTNGNGKRKQTKSRNGCTTCKAKRLKCDETKPHCKQCARRSVQCGGYRKE
  transcriptional activation domain activity: 39400

## HFILTYLLLFMSVPFEFVMASFEFFHLIHCLKFPNTFYSFFFSFVFFLRHFVF
  transcriptional activation domain activity: 56700

## ERHLLPGNIFWAVAFGWWLSGCCMIVSGLLYLVPMGGGRYGKLIYGLGWYLAW
  transcriptional activation domain activity: 65400

## VLRLFNDVWAVTLTQLSILALVGVYLILPYYNVLQCCLIRQDVVLLYLPAFLV
  transcriptional activation domain activity: 66500

## GKGKPRDNAKEEEKEEERKIPQAIVVSGLHHASTAAQLALSSALREGEIEMDG
  transcriptional activation domain activity: 15000

## WIPFTLSIIVVEIPYLLFFSTSLLCGIYWTAGLSNTPDAVGYFYLMIFFFIFW
  transcriptional activation domain activity: 61600

## AESGGESAGNASGEDFAAPKKKSSRSRIKKALQSLGSGKLSPKNSRTPKASPV
  transcriptional activation domain activity: 28400

## TSTGRFAFRQHRDHTTIHEGSWVSAGPGYDVGNRMWLLSRVVINAVVLELSSL
  transcriptional activation domain activity: 42400

## EGAADGRDEGEKSKVQKVGKACVYCQRSHMTCDESRPCKRCVSRKIADLCHDR
  transcriptional activation domain activity: 29900

## SLSRKKRGRGRPKGSKNKKSGDGAASSAAPSGDATGKRKRGRPPKEKPAEATA
  transcriptional activation domain activity: 44300

## MFMGTLWLVIFHYGWAFFLDYCVWYFMISLCFWCEVCLPVLLPAFHVCCLLWC
  transcriptional activation domain activity: 52400

## KFPLFMLIAQGSFAFILWCFPFRSFLFIWALLMFTHTPLPSLLLLASCFSFSF
  transcriptional activation domain activity: 60100

## CRGFGFWVRVLLGICGVCGVVALRTYAIYHVFQLNLPSRGLRFYLPLLFYIAC
  transcriptional activation domain activity: 57100

## PRLFPIASHLFFSLPHAKCCYPYLLLLLFPLLPLPFSLLVFCNLIFFFFFLFF
  transcriptional activation domain activity: 41300

## SREGPAQSSCSSRVTEILKSSRDLKVGDVLVLGKDQRVPADVVLLKSFATEAS
  transcriptional activation domain activity: 18600

## MILWNWILEFHSQTSFTLLLFILFHFIFFAYVPLLTSCYSHLFSFSFSTVSFI
  transcriptional activation domain activity: 46900

## ICHYKGSLIGKHFKSLSQVMPFIIYDLVPSTVLNAWTIMGKLIVLIWHTKILN
  transcriptional activation domain activity: 38600

## IRLMPFYSSPNVDVAEENLRCYENTAVFLLSNFQYLIVALVYCDGEPYRENIS
  transcriptional activation domain activity: 41000

## LHQFDHFGYQQVFSVRWMKKHLHDVSGGVMLHVIKYMANILSSLLAPMGYFEM
  transcriptional activation domain activity: 29600

## MFLPIVPFMLMLLRLLRLLRLLMLLMLLMLLPLFLFLFLLVMLCLFPLILLLL
  transcriptional activation domain activity: 56200

## MGFCSLYGSIFLFLFLVFFLLFFSSSVGNGASFFFFFPSILFWYSLYPLFTSF
  transcriptional activation domain activity: 35900

## NLMGSQARSNSQTPTASTIYEEAESQSSYLDDMFRTSQGGRPVTQNSISSIGQ
  transcriptional activation domain activity: 56100

## GKEKNHGRGERNGERTKAKGEGRGEEDSQRRGRRRESKERGRRRGGEPEETKG
  transcriptional activation domain activity: 49600

## KAAPEDKEPEPVAVSYKVNDTVMAKWVSGDKGYYPARITSVTGSSTDPIYVVK
  transcriptional activation domain activity: 19800

## QDALVELFGHMENFFRRLEKHIEVRPTTAMTDIIVKIMVEVLSILGIVTKEIE
  transcriptional activation domain activity: 41200

## NHWVFGAFSECFIPGVFLSLHPLTFFLDWTIGFVSDVYTFDAHDPSILELLIF
  transcriptional activation domain activity: 47000

## YHVQQSNIQLYDNDQVHIFLRKHFLYWLEALSLIGRLYEGVLALKILESILTL
  transcriptional activation domain activity: 61500

## EYVRETTPEKEGGGRRRQKREDVTSGEEDAPDAVEKGKKRKRSAAGGAGAGKK
  transcriptional activation domain activity: 48300

## LVDVFGRIESCFQRIGIYTRVPPTTEMMDMIIQIMVEVLTILGIATKEMKQSR
  transcriptional activation domain activity: 63000

## AIHRQLVESILGTTLRCTADISALDVSIADTLWYLLDGTARMVIQFFAVVLFA
  transcriptional activation domain activity: 62700

## SSTWFEPLENIISSASSSSIGSPIEDQFISSNNEESALFPTDQFFSNPSSYSH
  transcriptional activation domain activity: 84600

## DQPLNEILGFLLSWLLMFDHFNEITFKLKQEYTTQLKDGDLISLLLPVLFNIL
  transcriptional activation domain activity: 41100

## ADCAVIGVNSEEEATELPRAYVVHAKGIPPSEQAAFGVSVQEWVKSRVARHKQ
  transcriptional activation domain activity: 80600

## LTHEPSKPPRRVPYTTLLHTVPLLIILTVLSAVVCYVHILLLRVFVKPVVIGT
  transcriptional activation domain activity: 46600

## SNHGLIYSKPLAWEWNCIIDSIENSLVGYCMEQIFVVHVSRLLLLQWSITQIF
  transcriptional activation domain activity: 56000

## PPWVDDCNPFLTDVYYLGSLLKRTFFVVYELTYKDFLFLLTLPVHRTPFLLCN
  transcriptional activation domain activity: 50900

## VADVMLQRSTLVIGYCLVITIICCSVFLLYSMDFLSSCISFIWIGMVTLMICL
  transcriptional activation domain activity: 41500

## GSTNRSGDGSSDDERRKSRRRGRRRKASVSSSSSGGSKSSSTTSRSRSRSRSR
  transcriptional activation domain activity: 7680

## MEASFYFSSSSFCSAFLFFYFFILFFWGGFPLFPSQLFLSLSLLFIHTLSLFP
  transcriptional activation domain activity: 26700

## FAFLAPFFCFLFYMSMGFFRLFLFCFLGFGTFVVFNLILVPAFSLYLNHVYLL
  transcriptional activation domain activity: 68100

## ILQHILLWSLMVMTGCCPGSFFITSYYPNEWLKFLDGYMIQPYVTTFMIRGFL
  transcriptional activation domain activity: 56900

## DDNAGDGSLSSVVKVWLEGLTPSGRVEIFGRRNPPPVVRFLLLLVVSRRIGSL
  transcriptional activation domain activity: 58600

## CRGIYTLHTTNLMIVDDIVYLWRYDRQNVIQSTGLNFITDMPYFMALLAVFQR
  transcriptional activation domain activity: 48500

## VVVKVALLLRWLVMVYDVLDGHTMLSQLYGLLFNCLDMISLRTHICHLLSLLT
  transcriptional activation domain activity: 27000

## SSDYSIAQFRFLLKLLLVHGRWNYVRICKYILGTFYKEFMFYLTQLIYQRNTM
  transcriptional activation domain activity: 39600

## GKPRKRLAQACLTCREKKIKCEPGYPKCHQCAKSQRVCRGGLNQASIGNASGE
  transcriptional activation domain activity: 36100

## MFPYSWFRLLFRLLFLWPFLLFQLLFPWPTTLLILWPFRLLILWPIRLLILWP
  transcriptional activation domain activity: 73200

## IFFCHGRFLTSRSFWAFLLSLFLLIAPSILFLVFTCPWLWFHMSPSIPIVFSY
  transcriptional activation domain activity: 51200

## ERAVVGLLRICLILATRPSLRDQIFVSFDLLAGLPPAIANAVAEQVVAGLILV
  transcriptional activation domain activity: 35700

## SQKKHCELCKTAFRFTKLYSPDMPKHLPFHIFVHHMTRYLLRNFLVWLRAALV
  transcriptional activation domain activity: 43000

## MCMYFFTFFFFTFLFFFTFFVFFFFVSMEYLPTLLALIYIYYMSLPTSAQCSN
  transcriptional activation domain activity: 35900

## RWSYLRTSEMILTFFYKNIMWTLVLFWYQLFCGFSGTMMFDYSYITLYNLVFT
  transcriptional activation domain activity: 63200

## CFILLHLVLSFFALSCLYCLVLLLLPLPLILLFLLSSPWKFVPVHLQRHFVVV
  transcriptional activation domain activity: 68600

## ESKDKSKEGKSKRGDKTLDTKGKSEEENKKGGDKKDEKKKDEKKKEEEEKEKA
  transcriptional activation domain activity: 25400

## MHPILSCLVSIVCPIMHILLLAVLLFLNTLSRLILAFTYTTFSLFVFSVQLTP
  transcriptional activation domain activity: 71500

## VWVASKVEEDEASDYAAPEKQAKPKRQRGRPKKGGEDKSDVTSTAAAQESAAK
  transcriptional activation domain activity: 24500

## SSSAESSKASSSKKVASTKPKSKSAGTKAKPAAKKPAKKAAPKKKKPAKRAAK
  transcriptional activation domain activity: 34500

## YKNLSKYPIVKSAVALISLVQSLCRTMHSMPFHTEEYIRMIEVVLLKYYEKCY
  transcriptional activation domain activity: 34300

## MVVIWGLDLKEMQWWKFKGSYMFNQTYHLRRTKMIVYQIAMIFMVCSESVGTA
  transcriptional activation domain activity: 31600
